Paper PMC11189300, “Structure of the human KMN complex and implications for regulation of its assembly” (Nature Structural & Molecular Biology, 2024)

Experiments:
Conditions in all cases: both partners purified
[1] = target: T1, Mis12C^M5 (NSL1 I216A) (human, UniProt Q9H081 1-205; Q6P1K2 1-205; Q96IY1 1-281; Q9H410 1-356, I216A); assay: ITC; PEAQ-ITC; 50 mM HEPES pH 8.0, 150 mM NaCl, 1 mM TCEP; 19 injections; one-site binding fit
T1 construct: MIS12, human; PMF1, human; NSL1, human, with I216A on the α5 helix; DSN1, human; source: Tnao38 insect cells (baculovirus), purified (Talon, SEC); copies: + + +
T1 sequence (looked up) 1: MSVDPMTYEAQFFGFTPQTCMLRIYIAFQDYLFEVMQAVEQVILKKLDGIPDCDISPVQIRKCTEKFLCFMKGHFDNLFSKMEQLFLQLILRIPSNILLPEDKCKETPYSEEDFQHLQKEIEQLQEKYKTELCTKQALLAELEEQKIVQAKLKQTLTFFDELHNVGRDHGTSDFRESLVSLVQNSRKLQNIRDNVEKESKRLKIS
T1 sequence (looked up) 2: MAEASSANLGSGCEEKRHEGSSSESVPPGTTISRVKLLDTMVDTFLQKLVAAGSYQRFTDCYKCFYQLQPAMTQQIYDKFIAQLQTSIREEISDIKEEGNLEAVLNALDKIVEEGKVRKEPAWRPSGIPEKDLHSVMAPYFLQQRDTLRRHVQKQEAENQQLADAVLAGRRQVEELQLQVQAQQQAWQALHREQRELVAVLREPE
T1 sequence (looked up) 3: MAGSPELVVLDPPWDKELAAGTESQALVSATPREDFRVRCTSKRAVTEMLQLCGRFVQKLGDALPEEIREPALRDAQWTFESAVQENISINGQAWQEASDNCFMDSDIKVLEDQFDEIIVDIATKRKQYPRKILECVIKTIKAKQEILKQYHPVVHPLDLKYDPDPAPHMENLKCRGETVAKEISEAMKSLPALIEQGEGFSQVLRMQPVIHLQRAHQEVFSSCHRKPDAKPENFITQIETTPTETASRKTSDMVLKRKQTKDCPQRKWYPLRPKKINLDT
T1 sequence (looked up) 4: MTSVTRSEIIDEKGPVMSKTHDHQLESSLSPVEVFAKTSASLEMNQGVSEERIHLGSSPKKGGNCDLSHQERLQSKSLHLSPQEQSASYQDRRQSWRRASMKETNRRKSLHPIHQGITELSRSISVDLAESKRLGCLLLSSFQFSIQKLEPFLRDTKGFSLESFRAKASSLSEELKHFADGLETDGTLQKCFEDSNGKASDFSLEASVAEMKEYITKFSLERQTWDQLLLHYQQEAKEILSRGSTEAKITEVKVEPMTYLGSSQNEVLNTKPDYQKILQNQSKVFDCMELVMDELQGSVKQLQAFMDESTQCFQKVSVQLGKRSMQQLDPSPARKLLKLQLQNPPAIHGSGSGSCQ

[2] = target: T2, Mis12 complex (Mis12C), full length: MIS12, PMF1, NSL1, DSN1 (human, UniProt Q9H081 1-205; Q6P1K2 1-205; Q96IY1 1-281; Q9H410 1-356); assay: as above
T2 construct: MIS12, human, subunit of the Mis12 complex; PMF1, human, subunit of the Mis12 complex; NSL1, human, subunit of the Mis12 complex; DSN1, human, subunit of the Mis12 complex (DSN1^SORT-HIS); In BLI one partner was biotinylated by sortase (GGGG-biotin peptide); also called Mis12C^WT; wild-type Mis12C; source: Tnao38 insect cells (baculovirus from pBIG1A), purified (Talon, SEC); copies: + + +
T2 sequence (looked up) 1: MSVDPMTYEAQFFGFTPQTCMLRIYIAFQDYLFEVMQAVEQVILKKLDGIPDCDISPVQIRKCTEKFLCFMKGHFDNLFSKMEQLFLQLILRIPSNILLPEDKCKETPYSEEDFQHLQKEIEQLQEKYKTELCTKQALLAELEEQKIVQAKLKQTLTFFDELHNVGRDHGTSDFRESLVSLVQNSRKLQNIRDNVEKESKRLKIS
T2 sequence (looked up) 2: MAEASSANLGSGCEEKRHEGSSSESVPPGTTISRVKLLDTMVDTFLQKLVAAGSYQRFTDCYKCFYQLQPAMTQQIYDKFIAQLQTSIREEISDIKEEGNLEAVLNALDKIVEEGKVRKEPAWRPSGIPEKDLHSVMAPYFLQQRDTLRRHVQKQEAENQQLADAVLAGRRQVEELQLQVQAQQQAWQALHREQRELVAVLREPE
T2 sequence (looked up) 3: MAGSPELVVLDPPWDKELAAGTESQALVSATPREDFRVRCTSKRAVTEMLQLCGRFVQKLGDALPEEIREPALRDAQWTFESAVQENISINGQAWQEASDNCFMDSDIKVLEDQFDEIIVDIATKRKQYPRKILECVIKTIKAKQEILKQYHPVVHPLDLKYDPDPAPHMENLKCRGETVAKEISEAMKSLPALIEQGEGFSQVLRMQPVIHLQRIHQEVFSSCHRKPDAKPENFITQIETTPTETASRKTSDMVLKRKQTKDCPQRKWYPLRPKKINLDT
T2 sequence (looked up) 4: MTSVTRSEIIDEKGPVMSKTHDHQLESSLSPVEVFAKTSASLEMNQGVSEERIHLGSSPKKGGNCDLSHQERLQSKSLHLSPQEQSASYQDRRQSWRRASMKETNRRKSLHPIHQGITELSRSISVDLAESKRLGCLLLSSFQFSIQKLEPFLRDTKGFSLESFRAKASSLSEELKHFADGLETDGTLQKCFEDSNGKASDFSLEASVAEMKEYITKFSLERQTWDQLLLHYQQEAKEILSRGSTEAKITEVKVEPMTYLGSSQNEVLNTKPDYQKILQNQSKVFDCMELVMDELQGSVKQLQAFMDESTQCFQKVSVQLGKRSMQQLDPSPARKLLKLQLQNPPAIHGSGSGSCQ

[3] = target: T3, DSN1 (subunit of Mis12C in the KMN structure) (human, UniProt Q9H410 1-356); assay: cryo-EM structure; eight-subunit KMN (full-length Mis12C, SPC24 109–197/SPC25 92–224, ZWINT, KNL1 2,021–2,342), 0.3 mg/ml with 0.003% Triton; reconstruction at 4.5 Å; model fitted from known structures and AF2 predictions and refined against the map
T3 construct: DSN1, human; also called DSN1^SORT-HIS; source: Tnao38 insect cells (baculovirus), co-expressed in Mis12C, purified (Talon, SEC)
T3 sequence (looked up): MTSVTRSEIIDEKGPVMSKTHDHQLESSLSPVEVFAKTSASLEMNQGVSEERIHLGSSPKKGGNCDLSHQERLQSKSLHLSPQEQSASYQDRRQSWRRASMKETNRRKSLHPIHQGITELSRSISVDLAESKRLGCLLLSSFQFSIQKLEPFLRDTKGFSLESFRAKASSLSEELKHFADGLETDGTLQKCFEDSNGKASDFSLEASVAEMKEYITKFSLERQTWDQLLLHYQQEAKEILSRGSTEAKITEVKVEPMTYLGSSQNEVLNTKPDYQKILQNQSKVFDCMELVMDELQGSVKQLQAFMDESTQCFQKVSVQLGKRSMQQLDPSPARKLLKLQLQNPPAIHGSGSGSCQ

[4] = target: T4, SPC25_(92–224) (human, UniProt Q9HBM1 92-224); assay: as above
T4 construct: SPC25, human, residues 92–224 (RWD domain); source: E. coli BL21(DE3)-codon-plus-RIPL, co-purified with SPC24 (glutathione-agarose, 3C protease, SEC)
T4 sequence (looked up): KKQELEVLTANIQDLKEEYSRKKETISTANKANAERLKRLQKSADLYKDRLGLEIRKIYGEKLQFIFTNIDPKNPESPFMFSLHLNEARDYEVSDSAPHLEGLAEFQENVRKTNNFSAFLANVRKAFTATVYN

[5] = target: T5, NSL1 (subunit of Mis12C in the KMN structure) (human, UniProt Q96IY1 1-281); assay: as above
T5 construct: NSL1, human; source: Tnao38 insect cells (baculovirus), co-expressed in Mis12C, purified (Talon, SEC)
T5 sequence (looked up): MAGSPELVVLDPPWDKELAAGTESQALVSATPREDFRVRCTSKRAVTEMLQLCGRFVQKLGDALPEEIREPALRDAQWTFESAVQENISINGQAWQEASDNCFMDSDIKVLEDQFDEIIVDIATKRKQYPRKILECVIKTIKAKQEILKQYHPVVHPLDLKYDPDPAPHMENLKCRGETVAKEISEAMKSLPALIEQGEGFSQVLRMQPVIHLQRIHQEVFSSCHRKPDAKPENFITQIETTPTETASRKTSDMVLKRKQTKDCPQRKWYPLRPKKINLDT

[6] = target: T2, Mis12 complex (Mis12C), full length: …; assay: as above

B1: full-length SPC24/SPC25 (complex, human)
chain 1: MAAFRDIEEVSQGLLSLLGANRAEAQQRRLLGRHEQVVERLLETQDGAEKQLREILTMEKEVAQSLLNAKEQVHQGGVELQQLEAGLQEAGEEDTRLKASLLQLTRELEELKEIEADLERQEKEVDEDTTVTIPSAVYVAQLYHQVSKIEWDYECEPGMVKGIHHGPSVAQPIHLDSTQLSRKFISDYLWSLVDTEW
chain 2: MVEDELALFDKSINEFWNKFKSTDTSCQMAGLRDTYKDSIKAFAEKLSVKLKEEERMVEMFLEYQNQISRQNKLIQEKKDNLLKLIAEVKGKKQELEVLTANIQDLKEEYSRKKETISTANKANAERLKRLQKSADLYKDRLGLEIRKIYGEKLQFIFTNIDPKNPESPFMFSLHLNEARDYEVSDSAPHLEGLAEFQENVRKTNNFSAFLANVRKAFTATVYN
notes: SPC24, human; SPC25, human; GST was cleaved off with 3C protease; also called SPC24/SPC25 heterodimer; SPC24/SPC25 pair; source: E. coli BL21(DE3)-codon-plus-RIPL, purified (glutathione-agarose, 3C protease, SEC)
[1]
  fold reduction of binding affinity against the wild-type pair: ~15 fold
[2]
  Kd: ~46 nM

B2: SPC24_(109–197) (domain or fragment, human, UniProt Q8NBT2 109-197, looked up)
chain: EELKEIEADLERQEKEVDEDTTVTIPSAVYVAQLYHQVSKIEWDYECEPGMVKGIHHGPSVAQPIHLDSTQLSRKFISDYLWSLVDTEW
notes: source: E. coli BL21(DE3)-codon-plus-RIPL, co-purified with SPC25 (glutathione-agarose, 3C protease, SEC)
[3]
  binding result: binds
[4]
  binding result: binds
[5]
  binding result: binds

B3: SPC24_(109–197)/SPC25_(92–224) dimer (complex, human)
chain 1: EELKEIEADLERQEKEVDEDTTVTIPSAVYVAQLYHQVSKIEWDYECEPGMVKGIHHGPSVAQPIHLDSTQLSRKFISDYLWSLVDTEW
chain 2: KKQELEVLTANIQDLKEEYSRKKETISTANKANAERLKRLQKSADLYKDRLGLEIRKIYGEKLQFIFTNIDPKNPESPFMFSLHLNEARDYEVSDSAPHLEGLAEFQENVRKTNNFSAFLANVRKAFTATVYN
notes: SPC25, human, residues 92–224 (RWD domain); GST was cleaved off with 3C protease; also called SPC24/SPC25 dimer; source: E. coli BL21(DE3)-codon-plus-RIPL, purified (glutathione-agarose, 3C protease, SEC)
[3]
  binding result: binds
[5]
  binding result: binds
[6]
  binding result: binds
